According to patent US20230057012A1, “TGFB INHIBITORS AND USE THEREOF” (Scholar Rock, Inc., priority 2020, published 2023):
Entries after “also recorded” stand apart in the source; their conditions may differ.

Legend:
hGARP-proTGFβ1 [1] = target: T1, hGARP-proTGFβ1 (Homo sapiens, UniProt P01137); assay: Octet binding kinetics (BLI); conditions: Fab in solution, immobilized biotinylated antigen
T1 construct: biotin (the antigen complex is biotinylated); made in house
Procedure: (§1) The table below exemplifies binding kinetics of the listed antibodies (e.g., Fabs) obtained by OCTET®-based binding assays. The experiments were conducted with immobilized, biotinylated antigen and Fab fragments (e.g., test antibodies) in solution.
(§2) In some embodiments, the binding affinity of an antibody, or antigen-binding portion thereof, to an antigen (e.g., protein complex), such as presenting molecule-proTGFβ1 complexes, is determined using an Octet assay. In some embodiments, an Octet assay is an assay that determines one or more a kinetic parameters indicative of binding between an antibody and antigen. In some embodiments, an OCTET® system (FORTEBIO®, Menlo Park, Calif.) is used to determine the binding affinity of an antibody, or antigen-binding portion thereof, to presenting molecule-proTGFβ1 complexes. For example, binding affinities of antibodies may be determined using the FORTEBIO® Octet QKe dip and read label free assay system utilizing bio-layer interferometry. In some embodiments, antigens are immobilized to biosensors (e.g., streptavidin-coated biosensors) and the […] are presented in solution at high concentration (50 μg/mL) to measure binding interactions. In some embodiments, the binding affinity of an antibody, or antigen-binding portion thereof, to a presenting molecule-proTGFβ1 complex is determined using the protocol outlined in Table 14.
(§3) The protocol used to measure the affinity of the antibodies to the complexes provided herein is summarized in Table 14 below, and a summary list of affinity profiles of exemplary antibodies of the present disclosure is provided in Table 6 herein.

hLTBP1-proTGFβ1 [2] = target: T2, hLTBP1-proTGFβ1 (Homo sapiens, UniProt P01137); assay: Octet binding kinetics (BLI); conditions: Fab in solution, immobilized biotinylated antigen
T2 construct: biotin (the antigen complex is biotinylated); made in house
T2 sequence (P01137 30-390): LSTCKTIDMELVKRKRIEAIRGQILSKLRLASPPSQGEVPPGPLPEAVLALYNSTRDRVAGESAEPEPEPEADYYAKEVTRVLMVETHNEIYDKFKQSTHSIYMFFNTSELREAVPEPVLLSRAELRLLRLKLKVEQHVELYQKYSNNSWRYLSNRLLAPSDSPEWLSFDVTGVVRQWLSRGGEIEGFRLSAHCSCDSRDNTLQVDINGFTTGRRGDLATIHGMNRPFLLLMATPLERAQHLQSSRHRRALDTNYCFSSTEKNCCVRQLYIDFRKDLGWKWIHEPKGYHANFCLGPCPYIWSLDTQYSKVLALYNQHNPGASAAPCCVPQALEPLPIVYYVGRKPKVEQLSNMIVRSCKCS
T2 sequence (Q14766 347-1721 partner limits assumed): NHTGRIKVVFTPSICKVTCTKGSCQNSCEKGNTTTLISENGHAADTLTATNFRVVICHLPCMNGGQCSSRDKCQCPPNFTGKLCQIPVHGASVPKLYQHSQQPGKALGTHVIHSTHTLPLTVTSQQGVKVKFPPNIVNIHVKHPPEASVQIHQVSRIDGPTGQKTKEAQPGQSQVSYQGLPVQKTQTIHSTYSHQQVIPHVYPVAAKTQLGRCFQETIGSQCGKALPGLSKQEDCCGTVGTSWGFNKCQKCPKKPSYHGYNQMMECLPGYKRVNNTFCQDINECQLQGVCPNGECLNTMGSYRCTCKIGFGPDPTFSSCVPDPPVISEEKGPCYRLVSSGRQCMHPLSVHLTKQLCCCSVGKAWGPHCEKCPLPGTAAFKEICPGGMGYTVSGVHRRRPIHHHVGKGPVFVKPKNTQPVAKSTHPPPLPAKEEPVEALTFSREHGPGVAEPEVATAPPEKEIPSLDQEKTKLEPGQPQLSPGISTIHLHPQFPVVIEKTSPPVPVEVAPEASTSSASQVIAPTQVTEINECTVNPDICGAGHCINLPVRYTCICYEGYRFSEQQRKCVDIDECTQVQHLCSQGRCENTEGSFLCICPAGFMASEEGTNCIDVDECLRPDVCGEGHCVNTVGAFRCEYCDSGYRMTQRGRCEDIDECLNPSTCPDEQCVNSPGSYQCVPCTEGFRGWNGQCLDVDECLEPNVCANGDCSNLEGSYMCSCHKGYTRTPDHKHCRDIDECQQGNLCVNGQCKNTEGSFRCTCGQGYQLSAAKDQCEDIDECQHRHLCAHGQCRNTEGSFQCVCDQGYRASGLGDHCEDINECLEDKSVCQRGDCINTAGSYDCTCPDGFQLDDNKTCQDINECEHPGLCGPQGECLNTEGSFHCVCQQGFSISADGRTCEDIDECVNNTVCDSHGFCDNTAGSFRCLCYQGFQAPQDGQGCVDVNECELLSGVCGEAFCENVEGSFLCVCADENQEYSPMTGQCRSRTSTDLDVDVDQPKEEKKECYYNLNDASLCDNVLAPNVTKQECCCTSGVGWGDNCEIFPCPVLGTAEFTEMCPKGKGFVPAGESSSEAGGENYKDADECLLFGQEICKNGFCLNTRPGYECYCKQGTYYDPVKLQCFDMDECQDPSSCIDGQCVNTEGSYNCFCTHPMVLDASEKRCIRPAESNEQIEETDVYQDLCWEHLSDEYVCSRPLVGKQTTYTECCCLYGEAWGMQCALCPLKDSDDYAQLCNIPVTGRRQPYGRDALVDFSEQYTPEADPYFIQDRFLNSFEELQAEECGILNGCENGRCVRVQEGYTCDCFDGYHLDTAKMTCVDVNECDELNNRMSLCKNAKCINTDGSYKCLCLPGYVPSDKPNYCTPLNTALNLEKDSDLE
Procedure: as §1, §2, §3

hLTBP3-proTGFβ1 [3] = target: T3, hLTBP3-proTGFβ1 (Homo sapiens, UniProt P01137); assay: Octet binding kinetics (BLI); conditions: Fab in solution, immobilized biotinylated antigen
T3 construct: biotin (the antigen complex is biotinylated); made in house
T3 sequence (P01137 30-390): as the sequence (P01137 30-390) above
T3 sequence (Q9NS15 44-1303 partner): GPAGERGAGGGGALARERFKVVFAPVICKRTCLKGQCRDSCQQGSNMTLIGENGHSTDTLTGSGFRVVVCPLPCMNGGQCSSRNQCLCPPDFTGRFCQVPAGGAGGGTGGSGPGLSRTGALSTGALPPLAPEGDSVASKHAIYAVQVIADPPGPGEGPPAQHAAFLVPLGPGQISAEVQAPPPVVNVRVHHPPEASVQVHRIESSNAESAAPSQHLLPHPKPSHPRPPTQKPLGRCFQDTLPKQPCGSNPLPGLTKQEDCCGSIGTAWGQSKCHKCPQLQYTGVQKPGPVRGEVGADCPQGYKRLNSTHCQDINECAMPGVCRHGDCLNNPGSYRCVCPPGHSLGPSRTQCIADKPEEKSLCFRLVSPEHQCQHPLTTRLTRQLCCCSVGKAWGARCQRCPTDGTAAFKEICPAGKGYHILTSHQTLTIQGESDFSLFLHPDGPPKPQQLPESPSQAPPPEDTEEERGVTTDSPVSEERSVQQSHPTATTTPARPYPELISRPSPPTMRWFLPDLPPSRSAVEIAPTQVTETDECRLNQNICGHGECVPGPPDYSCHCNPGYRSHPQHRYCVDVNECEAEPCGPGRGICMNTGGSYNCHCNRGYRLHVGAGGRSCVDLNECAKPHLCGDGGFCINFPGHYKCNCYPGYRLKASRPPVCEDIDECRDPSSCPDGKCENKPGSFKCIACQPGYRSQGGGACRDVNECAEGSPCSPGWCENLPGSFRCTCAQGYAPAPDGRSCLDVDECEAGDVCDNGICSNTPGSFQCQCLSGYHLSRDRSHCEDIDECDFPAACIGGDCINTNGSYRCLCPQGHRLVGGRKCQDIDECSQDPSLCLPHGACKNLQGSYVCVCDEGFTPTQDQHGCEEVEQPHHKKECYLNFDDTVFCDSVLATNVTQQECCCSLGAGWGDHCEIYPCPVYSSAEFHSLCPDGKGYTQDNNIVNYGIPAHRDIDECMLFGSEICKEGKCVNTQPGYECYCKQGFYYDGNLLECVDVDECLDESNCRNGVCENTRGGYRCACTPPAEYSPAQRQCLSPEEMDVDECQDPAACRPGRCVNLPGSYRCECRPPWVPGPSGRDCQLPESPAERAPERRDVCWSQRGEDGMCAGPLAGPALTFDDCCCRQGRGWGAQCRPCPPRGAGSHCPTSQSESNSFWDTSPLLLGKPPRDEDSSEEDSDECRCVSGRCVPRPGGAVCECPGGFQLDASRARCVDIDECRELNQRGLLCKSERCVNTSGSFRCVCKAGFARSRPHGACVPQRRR
Procedure: as §1, §2, §3

hGARP-proTGFβ1 [4] = target: T1, hGARP-proTGFβ1; assay: Biacore SPR Fab binding kinetics
Procedure: (§4) Among these antibodies, Ab42, Ab46 and Ab50 were selected for further evaluation. Surface plasmon resonance (SPR) was used to measure binding kinetics using a BIACORE® system. Association and dissociation kinetics of Fab fragments of Ab42, Ab46, Ab50 and a reference antibody (shown as “Ref”), to antigen complexes were measured, and resulting equilibrium dissociation constants (KD) are provided below. Experiments were carried out with eight types of LLCs, namely, hLTBP1-proTGFβ1, mLTBP1-proTGFβ1, hLTBP3-proTGFβ1, mLTBP3-proTGFβ1, hGARP-proTGFβ1, mGARP-proTGFβ1, hLRRC33-proTGFβ1 and mLRRC33-proTGFβ1.
(§5) In vitro binding kinetics (on/off rates) were measured in Biacore-based assays and affinities were determined against all four known LLCs using both human and murine counterparts for each. Based on the association rate and dissociation rate, KD was calculated for each. In addition, relative affinities, as compared to the reference antibody as a benchmark, were calculated and expressed as “fold difference” relative to the reference antibody.
(§6) A BIACORE® system was employed to determine the monovalent binding affinity and the kinetic parameters for antigen binding of test antibodies. The binding kinetics were evaluated by surface plasmon resonance using Biacore 8K (GE Healthcare). A Biotin CAP sensor chip was used to capture the biotinylated antigens. Fabs at various concentrations (0 nM, 0.62 nM, 1.25 nM, 2.5 nM, 5 nM and 10 nM) were injected over the captured antigens. Multi-cycle kinetics was employed where each analyte concentration was injected in a separate cycle and the sensor chip surface was regenerated after each cycle. All the assays were carried out in freshly prepared 1× HBS-EP+ buffer (10 mM HEPES, 150 mM NaCl, 3 mM EDTA, 0.05% Tween20, pH 7.4). Data for all the analyte concentrations for each interaction were fit globally to a 1:1 binding model to obtain the kinetic parameters. The Sensorgram for 0 nM analyte concentration was used as reference.
(§7) The binding kinetics of antibody interactions with each of the antigen complexes, human LTBP1-ProTGFβ1, human LTBP3-ProTGFβ1, human GARP-ProTGFβ1, and human LRRC33-ProTGFβ1, were evaluated by surface plasmon resonance. Binding kinetics was evaluated by surface plasmon resonance using a BIACORE® 8K (GE) instrument. Biotinylated antigens were captured on a Biotin CAP chip and the Fab fragments of the antibodies were used as analytes. Sensorgrams for Fab binding at variable concentrations (0.6-10 nM) were globally fit to obtain the kinetic parameters.
(§8) Binding kinetics for the Fabs were evaluated against each of the four human antigens, LTBP1-ProTGFβ1, LTBP3-ProTGFβ1, GARP-ProTGFβ1, and LRRC33-ProTGFβ1. […] These experiments were repeated.

hLRRC33-proTGFβ1 = target: T4, hLRRC33-proTGFβ1 (Homo sapiens, UniProt P01137); assay: Biacore SPR Fab binding kinetics
T4 construct: biotin (the antigen complex is biotinylated); made in house
T4 sequence (P01137 30-390): as the sequence (P01137 30-390) above
T4 sequence (Q86YC3 with tags, fused parts or gaps partner limits assumed): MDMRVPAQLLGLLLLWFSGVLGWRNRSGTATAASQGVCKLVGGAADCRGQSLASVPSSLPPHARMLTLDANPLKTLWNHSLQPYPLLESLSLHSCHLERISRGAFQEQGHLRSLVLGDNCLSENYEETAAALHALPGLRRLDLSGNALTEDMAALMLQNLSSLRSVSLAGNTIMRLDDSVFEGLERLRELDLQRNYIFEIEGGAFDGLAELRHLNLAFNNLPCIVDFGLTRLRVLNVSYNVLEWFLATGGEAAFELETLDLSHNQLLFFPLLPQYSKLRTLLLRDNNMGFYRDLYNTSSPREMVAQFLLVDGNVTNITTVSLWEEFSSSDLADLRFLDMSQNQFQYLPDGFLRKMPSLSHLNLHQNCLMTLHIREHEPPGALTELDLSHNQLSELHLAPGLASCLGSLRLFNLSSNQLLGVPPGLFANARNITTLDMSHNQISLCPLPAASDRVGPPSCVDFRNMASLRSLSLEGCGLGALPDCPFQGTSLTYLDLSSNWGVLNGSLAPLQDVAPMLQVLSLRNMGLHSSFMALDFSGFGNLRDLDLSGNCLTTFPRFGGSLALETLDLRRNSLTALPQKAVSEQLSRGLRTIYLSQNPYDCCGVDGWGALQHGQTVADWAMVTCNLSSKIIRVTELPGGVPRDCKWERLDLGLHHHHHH
Procedure: as §4, §5, §6, §7, §8

hLTBP1-proTGFβ1 [5] = target: T2, hLTBP1-proTGFβ1; assay: Biacore SPR Fab binding kinetics
Procedure: as §4, §5, §6, §7, §8

hLTBP3-proTGFβ1 [6] = target: T3, hLTBP3-proTGFβ1; assay: Biacore SPR Fab binding kinetics
Procedure: as §4, §5, §6, §7, §8

mGARP-proTGFβ1 [7] = target: T5, mGARP-proTGFβ1 (Homo sapiens, UniProt P01137); assay: Biacore SPR Fab binding kinetics; parameters: species or system mouse; conditions: Table 10
T5 construct: biotin (the antigen complex is biotinylated); made in house
T5 sequence (P01137 30-390): as the sequence (P01137 30-390) above
T5 sequence (G3XA59 18-628 partner limits assumed): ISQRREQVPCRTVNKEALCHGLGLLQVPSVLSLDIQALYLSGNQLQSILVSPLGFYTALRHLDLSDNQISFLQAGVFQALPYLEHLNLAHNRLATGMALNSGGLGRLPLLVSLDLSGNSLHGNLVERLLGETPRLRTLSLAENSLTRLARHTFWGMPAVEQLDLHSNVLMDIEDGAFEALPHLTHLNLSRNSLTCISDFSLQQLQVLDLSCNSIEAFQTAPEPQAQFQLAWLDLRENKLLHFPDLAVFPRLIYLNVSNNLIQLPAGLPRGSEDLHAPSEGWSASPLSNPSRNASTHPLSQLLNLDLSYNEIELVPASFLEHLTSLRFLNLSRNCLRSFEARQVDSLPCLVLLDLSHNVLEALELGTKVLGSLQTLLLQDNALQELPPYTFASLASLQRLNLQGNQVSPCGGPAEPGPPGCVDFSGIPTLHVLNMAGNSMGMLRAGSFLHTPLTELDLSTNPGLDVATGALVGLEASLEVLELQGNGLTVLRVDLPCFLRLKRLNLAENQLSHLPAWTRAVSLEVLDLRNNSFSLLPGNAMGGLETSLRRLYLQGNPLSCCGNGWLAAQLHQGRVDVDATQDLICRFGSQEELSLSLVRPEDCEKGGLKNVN
Procedure: as §4, §5, §6

mGARP-proTGFβ1 [8] = target: T6, mGARP-proTGFβ1; assay: Biacore SPR Fab binding kinetics; parameters: species or system mouse; conditions: Table 10
T6 construct: biotin (the antigen complex is biotinylated); made in house
Procedure: as §4, §5, §6

mLRRC33-proTGFβ1 [9] = target: T7, mLRRC33-proTGFβ1 (Homo sapiens, UniProt P01137); assay: Biacore SPR Fab binding kinetics; parameters: species or system mouse; conditions: Table 12
T7 construct: biotin (the antigen complex is biotinylated); made in house
Procedure: as §4, §5, §6

mLRRC33-proTGFβ1 [10] = target: T8, mLRRC33-proTGFβ1; assay: Biacore SPR Fab binding kinetics; parameters: species or system mouse; conditions: Table 12
T8 construct: biotin (the antigen complex is biotinylated); made in house
Procedure: as §4, §5, §6

mLTBP1-proTGFβ1 [11] = target: T9, mLTBP1-proTGFβ1 (Homo sapiens, UniProt P01137); assay: Biacore SPR Fab binding kinetics; parameters: species or system mouse; conditions: Table 6
T9 construct: biotin (the antigen complex is biotinylated); made in house
Procedure: as §4, §5, §6

mLTBP1-proTGFβ1 [12] = target: T10, mLTBP1-proTGFβ1; assay: Biacore SPR Fab binding kinetics; parameters: species or system mouse; conditions: Table 6
T10 construct: biotin (the antigen complex is biotinylated); made in house
Procedure: as §4, §5, §6

mLTBP3-proTGFβ1 [13] = target: T11, mLTBP3-proTGFβ1 (Homo sapiens, UniProt P01137); assay: Biacore SPR Fab binding kinetics; parameters: species or system mouse; conditions: Table 8
T11 construct: biotin (the antigen complex is biotinylated); made in house
Procedure: as §4, §5, §6

mLTBP3-proTGFβ1 [14] = target: T12, mLTBP3-proTGFβ1; assay: Biacore SPR Fab binding kinetics; parameters: species or system mouse; conditions: Table 8
T12 construct: biotin (the antigen complex is biotinylated); made in house
Procedure: as §4, §5, §6

LLCs = assay: ELISA binding to LLCs; conditions: hIgG4; FIGS. 3 and 4
CDHFD mice = assay: choline-deficient high fat diet (CDHFD) liver fibrosis model; assay type: in vivo
[15] = system: Wistar-Han rats on a CDHF diet; assay: CDHFD target engagement study in rats; assay type: in vivo
Procedure: A similar study was run in 10-12 week old male Wistar-Han rats as follows: rats were fed on a CDHF diet for 12 weeks and then randomized. A first dose of the negative control (“HuNEG” IgG4, 30 mg/kg, n=6) or Ab46 (3, 10, and 30 mg/kg, n=8) was given on Day 1, and a second dose was given on Day 3. Treatment with a TGF-β type 1 receptor (ALK5) kinase inhibitor (ALK5i, 10 mg/kg) was used as a positive control. Tissue collection (left lateral lobe) was performed on Day 5. All rats had detectable serum antibody exposure. […] The study was repeated with a broader dose range: rats were fed on a CDHF diet for 12 weeks and then randomized. A single dose of 0.3 mg/kg, 1 mg/kg, 3 mg/kg, 10 mg/kg, or 30 mg/kg of Ab46 was given on Day 1, and tissue collection was performed after 48 hours.

T1 sequence (P01137 30-390): as the sequence (P01137 30-390) above
T1 sequence (Q14392 18-627 partner limits assumed): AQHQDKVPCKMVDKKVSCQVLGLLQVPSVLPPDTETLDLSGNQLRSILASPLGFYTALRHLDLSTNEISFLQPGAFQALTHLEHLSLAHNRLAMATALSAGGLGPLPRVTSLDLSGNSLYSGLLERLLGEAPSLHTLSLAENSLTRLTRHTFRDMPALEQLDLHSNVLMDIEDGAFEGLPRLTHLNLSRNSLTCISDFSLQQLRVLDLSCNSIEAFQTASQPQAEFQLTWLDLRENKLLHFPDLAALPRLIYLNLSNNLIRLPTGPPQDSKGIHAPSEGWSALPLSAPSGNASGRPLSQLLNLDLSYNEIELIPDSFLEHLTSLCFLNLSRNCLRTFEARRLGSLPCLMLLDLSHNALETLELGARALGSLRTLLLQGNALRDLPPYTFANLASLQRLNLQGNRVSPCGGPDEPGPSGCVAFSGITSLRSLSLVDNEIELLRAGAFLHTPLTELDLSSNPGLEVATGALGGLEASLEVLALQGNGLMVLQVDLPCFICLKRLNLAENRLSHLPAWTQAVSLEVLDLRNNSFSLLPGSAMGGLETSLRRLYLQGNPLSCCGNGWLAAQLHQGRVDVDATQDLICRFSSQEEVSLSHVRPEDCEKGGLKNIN

KOFF (hGARP-proTGFβ1 [1]): 0.00029 s⁻¹
KON (hGARP-proTGFβ1 [1]): 7.03E+05 M^−1/s^−1
KOFF (hLTBP1-proTGFβ1 [2]): 4.98e-05 s⁻¹
KON (hLTBP1-proTGFβ1 [2]): 7.03E+05 M^−1/s^−1
KOFF (hLTBP3-proTGFβ1 [3]): 0.000438 s⁻¹
KON (hLTBP3-proTGFβ1 [3]): 6.19E+05 M^−1/s^−1
KOFF (hGARP-proTGFβ1 [4]; Biacore 8K, Table 22): 0.000359 s⁻¹
kon (hGARP-proTGFβ1 [4]; Biacore 8K, Table 22): 1.89e+06 M⁻¹ s⁻¹
KOFF (hGARP-proTGFβ1 [4]; Biacore, Table 9): 0.000222 s⁻¹
KON (hGARP-proTGFβ1 [4]; Biacore, Table 9): 9.65E+05 M^−1/s^−1
KOFF (hLRRC33-proTGFβ1; Biacore 8K, Table 22): 0.000162 s⁻¹
kon (hLRRC33-proTGFβ1; Biacore 8K, Table 22): 1.36e+06 M⁻¹ s⁻¹
KOFF (hLRRC33-proTGFβ1; Biacore, Table 11): 0.000128 s⁻¹
KON (hLRRC33-proTGFβ1; Biacore, Table 11): 1.52E+06 M^−1/s^−1
KOFF (hLTBP1-proTGFβ1 [5]; Biacore 8K, Table 22): 8.52e-05 s⁻¹
kon (hLTBP1-proTGFβ1 [5]; Biacore 8K, Table 22): 2.44e+06 M⁻¹ s⁻¹
KOFF (hLTBP1-proTGFβ1 [5]; Biacore, Table 5): 8.81e-05 s⁻¹
KON (hLTBP1-proTGFβ1 [5]; Biacore, Table 5): 1.75E+06 M^−1/s^−1
time bound to the antigen relative to the reference antibody (hLTBP1-proTGFβ1 [5]; SPR, FIG. 2, antigen not given): more than 50 times
t1/2 (dissociation) (hLTBP1-proTGFβ1 [5]; SPR, FIG. 2, antigen not given, values fit the KOFF of Table 5): over 130 minutes
KOFF (hLTBP3-proTGFβ1 [6]; Biacore 8K, Table 22): 0.000195 s⁻¹
kon (hLTBP3-proTGFβ1 [6]; Biacore 8K, Table 22): 1.78e+06 M⁻¹ s⁻¹
KOFF (hLTBP3-proTGFβ1 [6]; Biacore, Table 7): 0.000128 s⁻¹
KON (hLTBP3-proTGFβ1 [6]; Biacore, Table 7): 1.00E+06 M^−1/s^−1
KON (mGARP-proTGFβ1 [7]): 1.02E+06 M^−1/s^−1
KOFF (mGARP-proTGFβ1 [8]): 0.000278 s⁻¹
KON (mLRRC33-proTGFβ1 [9]): 1.26E+06 M^−1/s^−1
KOFF (mLRRC33-proTGFβ1 [10]): 0.000112 s⁻¹
KON (mLTBP1-proTGFβ1 [11]): 1.85E+06 M^−1/s^−1
KOFF (mLTBP1-proTGFβ1 [12]): 9.87e-05 s⁻¹
KON (mLTBP3-proTGFβ1 [13]): 1.20E+06 M^−1/s^−1
KOFF (mLTBP3-proTGFβ1 [14]): 0.000115 s⁻¹
binding by ELISA (LLCs): Specific and selective binding
B1: Ab46: activation inhibitor of TGFβ1; H-CDR3 VSGHWDYD, L-CDR2 AASGLES, L-CDR3 QQTYGVPLT (Table 3) (antibody, V domains shown)
VH: EVQLLESGGGLVQPGGSLRLSCAASGFTFADYAMTWVRQAPGKGLEWVSAISGSGAATYFADSVKGRFTISRDNSKNTLYLQMNSLRAEDTAVYYCARVSSGHWDYDYWGQGTLVTVSS
VL: DIQLTQSPSSLSASVGDRVTITCRASQSISSYLNWYQQKPGKAPKLLIYAASGLESGVPSRFSGSGSGTDFTLTISSLQPEDFATYYCQQTYGVPLTFGGGTKVEIK
% positive pSMAD2 nuclei in liver (CDHFD mice; 30 mg/kg on Day 1 and Day 3 after ten weeks of CDHFD): Significant reduction in % positive pSMAD2 nuclei
ratio of phosphorylated versus total SMAD2/3 in the medial lobe (ELISA) (CDHFD mice; 3, 10 and 30 mg/kg on Day 1 and Day 3 after ten weeks of CDHFD, tissue Day 5, p<0.05): Significant reduction in pSMAD2/3
reduction in % pSMAD2 nuclei compared to comparable doses of Ab2 (CDHFD mice; data not shown): greater
% pSMAD2-positive nuclei, left lateral lobe ([15]; 3, 10 and 30 mg/kg on Day 1 and Day 3 after 12 weeks of CDHFD, tissue Day 5): suppression of SMAD2 phosphorylation; also recorded: able to suppress phosphorylation of SMAD2
reduction in percentage of pSMAD2-positive nuclei compared with Ab2 ([15]; rat, in vivo): greater
% pSMAD2-positive nuclei ([15]; single dose 10 mg/kg and 30 mg/kg on Day 1, tissue after 48 hours): appeared to fully suppress SMAD2 phosphorylation; also recorded: significant reduction of pSMAD2-positive nuclei
